Measured values as given in paper PMC8563730, “CryoEM structure of the outer membrane secretin channel pIV from the f1 filamentous bacteriophage” (Nature Communications, 2021).

Target: the molecule itself
Experiment: cryo-EM structure; purified f1pIV (~0.7 mg/ml) in 1% CHAPS, 25 mM Na HEPES pH 8.0, 500 mM NaCl, 0.5 mM EDTA, on graphene oxide-coated lacey carbon grids; 2D class averages and a 3D reconstruction with C15 symmetry, 2.7 Å

B1: f1 pIV secretin (His-tagged f1pIV with the stabilizing S318I mutation) (natural protein, bacteriophage f1, UniProt P03666 22-426, looked up)
chain: QVIEMNNSSLRDFVTWYSKQTGESVIVSPDVKGTVTVYSSDVKPENLRDFFISVLRANNFDMVGSIPSIIQKYNPNNQDYIDELPSSDNQEYDDNSAPSGGFFVPQNDNVTQTFKINNVRAKDLIRVVELFVKSNTSKSSNVLSVDGSNLLVVSAPKDILDNLPQFLSTVDLPTDQILIEGLIFEVQQGDALDFSFAAGSQRGTVAGGVNTDRLTSVLSSAGGSFGIFNGDVLGLSVRALKTNSHSKILSVPRILTLSGQKGSISVGQNVPFITGRVTGESANVNNPFQTVERQNVGISMSVFPVAMAGGNIVLDITIKADSLSSSTQASDVITNQRSIATTVNLRDGQTLLLGGLTDYKNTSQDSGVPFLSKIPLIGLLFSSRSDSNEESTLYVLVKATIVRAL
notes: pIV secretin (gene IV protein, virion export protein) of filamentous bacteriophage f1; mature protein of 405 residues (N0 1-88, linker 89-107, N3 108-172, linker 173-174, secretin domain 175-405); S318 is residue 339 of the precursor (318 + 21 signal residues); also called f1pIV secretin channel; copies: 15
stoichiometry N: 15
